From publication PMC2843198 (The Journal of Biological Chemistry, 2010) come the findings set out here.

This series concerns the molecule itself. As to the kind of experiment: SEC. (In general: Size exclusion chromatography separates by hydrodynamic size, large species first.)

B1: TAP-tagged Fun30 (Function unknown now 30) (enzyme, S. cerevisiae, UniProt P31380 1-1131, looked up)
chain: MSGSHSNDEDDVVQVPETSSPTKVASSSPLKPTSPTVPDASVASLRSRFTFKPSDPSEGAHTSKPLPSGSPEVALVNLAREFPDFSQTLVQAVFKSNSFNLQSARERLTRLRQQRQNWTWNKNASPKKSETPPPVKKSLPLANTGRLSSIHGNINNKSSKITVAKQKTSIFDRYSNVINQKQYTFELPTNLNIDSEALSKLPVNYNKKRRLVRADQHPIGKSYESSATQLGSAREKLLANRKYGRHANDNDEEEEESMMTDDDDASGDDYTESTPQINLDEQVLQFINDSDIVDLSDLSDTTMHKAQLIASHRPYSSLNAFVNTNFNDKDTEENASNKRKRRAAASANESERLLDKITQSIRGYNAIESVIKKCSSYGDLVTSQMKKWGVQVEGDNSELDLMNLGEDDDDDNDDGNNDNNNSNNNNTAGADATSKEKEDTKAVVEGFDETSAEPTPAPAPAPVERETKRIRNTTKPKVVEDEDDDVDLEAIDDELPQSEHEDDDYEEEDEDYNDEEEDVEYDDGDDDDDDDDEFVATRKNTHVISTTSRNGRKPIVKFFKGKPRLLSPEISLKDYQQTGINWLNLLYQNKMSCILADDMGLGKTCQVISFFAYLKQINEPGPHLVVVPSSTLENWLREFQKFAPALKIEPYYGSLQEREELRDILERNAGKYDVIVTTYNLAAGNKYDVSFLKNRNFNVVVYDEGHMLKNSTSERFAKLMKIRANFRLLLTGTPLQNNLKELMSLLEFIMPNLFISKKESFDAIFKQRAKTTDDNKNHNPLLAQEAITRAKTMMKPFILRRRKDQVLKHLPPKHTHIQYCELNAIQKKIYDKEIQIVLEHKRMIKDGELPKDAKEKSKLQSSSSKNLIMALRKASLHPLLFRNIYNDKIITKMSDAILDEPAYAENGNKEYIKEDMSYMTDFELHKLCCNFPNTLSKYQLHNDEWMQSGKIDALKKLLKTIIVDKQEKVLIFSLFTQVLDILEMVLSTLDYKFLRLDGSTQVNDRQLLIDKFYEDKDIPIFILSTKAGGFGINLVCANNVIIFDQSFNPHDDRQAADRAHRVGQTKEVNITTLITKDSIEEKIHQLAKNKLALDSYISEDKKSQDVLESKVSDMLEDIIYDENSKPKGTKE
As for B1, the stoichiometry N (usually the number of molecules, sites or subunits per partner or assembly) was 2.
